For assay [1], the target named is N2 A/HongKong/2671/2019 N245S (Influenza A virus (H3N2)).
The target of assay [2] is N2 A/Tanzania/205/2010 S245N 247T (Influenza A virus (H3N2)).
Assay [3] concerns the target N2 A/Switzerland/8060/2017 N245S (Influenza A virus (H3N2)).

Here are results for 1 substance from US20260184814A1, “BROADLY NE[…] INFLUENZA NEURAMINIDASE” (priority 2022, published 2026).

For the substance 1G01 Fab, the figures for the Kd in assay [1], in assay [2] and in assay [3] were 375 nM, less than 0.02 nM and 398 nM, respectively.
